What all share (conditions): both partners purified
Assay [1] concerns the target T1, Recombinant human RAGE Fc chimera (human, UniProt Q15109 23-342).
T1 construct: receptor for advanced glycation end products (RAGE), human, recombinant, fused to Fc; No catalogue number printed; also called receptor for advanced glycation end products; AGER; source: bought: R&D Systems
Kind of assay: ELISA; CAP37, neutrophil elastase, cathepsin G or Aβ1-42 (0.5 μg/well) or BSA (1000 μg/well) coated on Maxisorp plates in PBS pH 7.4; RAGE Fc chimera 0–3.3 nM in PBST with 0.1% BSA, 37°C, 70 min; bound RAGE detected with goat anti-RAGE; BSA subtracted as background for KD.

The target of assay [2] is T1, Recombinant human RAGE Fc chimera. Kind of assay: ELISA; competition: RAGE Fc chimera coated (0.5 μg/well, 83.3 nM); Aβ1-42 (11 nM) added at the same time as CAP37 (0–2.5 μM) or neutrophil elastase (0–0.5 μM); no protease inhibitors; bound Aβ1-42 detected with anti-APP/Aβ.
Assay [3] addresses T2, Amyloid beta 1–42 (Aβ1–42) (UniProt P05067 672-713).
T2 construct: amyloid beta 1-42, the cut product of amyloid precursor protein (APP); numbers count on: the Aβ peptide; source: bought: Bachem (95.2% pure by HPLC), dissolved in 1 mM sodium hydroxide
Kind of assay: ELISA; CAP37, neutrophil elastase or cathepsin G (0.5 μg/well) or BSA (1000 μg/well) coated; Aβ1-42 0–111 nM in PBST with 0.1% BSA and protease inhibitor cocktail; bound Aβ1-42 detected with anti-APP/Aβ; BSA subtracted as background for KD. (An ELISA detects its analyte on a solid surface through an enzyme-linked reagent.)

T1 sequence (Q15109 23-342, change not shown): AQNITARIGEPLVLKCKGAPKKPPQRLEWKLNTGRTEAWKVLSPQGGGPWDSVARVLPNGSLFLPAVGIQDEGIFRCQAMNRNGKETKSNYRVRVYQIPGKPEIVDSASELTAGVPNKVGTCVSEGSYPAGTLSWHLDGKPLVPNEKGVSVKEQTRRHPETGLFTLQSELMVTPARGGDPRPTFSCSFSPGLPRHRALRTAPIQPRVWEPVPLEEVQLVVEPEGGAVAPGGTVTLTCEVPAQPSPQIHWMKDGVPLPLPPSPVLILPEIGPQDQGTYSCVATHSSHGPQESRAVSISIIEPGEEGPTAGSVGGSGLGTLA

B1: neutrophil elastase (enzyme)
chain: IVGGRRARPHAWPFMVSLQLRGGHFCGATLIAPNFVMSAAHCVANVNVRAVRVVLGAHNLSRREPTRQVFAVQRIFENGYDPVNLLNDIVILQLNGSATINANVQVAQLPAQGRRLGNGVQCLAMGWGLLGRNRGIASVLQELNVTVVTSLCRRSNVCTLVRGRQAGVCFGDSGSPLVCNGLIHGIASFVRGGCASGLYPDAFAPVAQFVNWIDSIIQ
modifications: native N-glycosylated, disulfide-bonded active enzyme from human neutrophils. Limits are not printed: the signal and activation dipeptide are removed (starts at 30), and the C-terminal propeptide is …
With B1, the Kd in assay [1] was found to be 3.25 nM.

B2: cationic antimicrobial protein of 37kDa (CAP37) (natural protein, human, UniProt P20160 27-251, looked up)
chain: IVGGRKARPRQFPFLASIQNQGRHFCGGALIHARFVMTAASCFQSQNPGVSTVVLGAYDLRRRERQSRQTFSISSMSENGYDPQQNLNDLMLLQLDREANLTSSVTILPLPLQNATVEAGTRCQVAGWGSQRSGGRLSRFPRFVNVTVTPEDQCRPNNVCTGVLTRRGGICNGDGGTPLVCEGLAHGVASFSLGPCGRGPDFFTRVALFRDWIDGVLNNPGPGPA
notes: cationic antimicrobial protein of 37kDa (CAP37, encoded by AZU1), human, purified from neutrophils, >95% pure by SDS-PAGE; also called AZU1; source: purified from human neutrophils; bought: Athens Research & Technology
For orientation: IC50 means the concentration needed to halve the response being measured. As for B2, the IC50 in assay [2] was determined as 1280 nM. The Kd was found to be 37.9 nM in assay [3] and 1.26 nM in assay [1].

B3: cathepsin G (enzyme, human, UniProt P08311 21-244, looked up)
chain: IIGGRESRPHSRPYMAYLQIQSPAGQSRCGGFLVREDFVLTAAHCWGSNINVTLGAHNIQRRENTQQHITARRAIRHPQYNQRTIQNDIMLLQLSRRVRRNRNVNPVALPRAQEGLRPGTLCTVAGWGRVSMRRGTDTLREVQLRVQRDRQCLRIFGSYDPRRQICVGDRRERKAAFKGDSGGPLLCNNVAHGIVSYGKSSGVPPEVFTRVSSFLPWIRTTMRS
notes: cathepsin G (CTSG), human, purified from neutrophils, >95% pure by SDS-PAGE; also called CG; CTSG; source: purified from human neutrophils; bought: Athens Research & Technology
Regarding B3, the Kd was 20.7 nM in assay [3] and 0.45 nM in assay [1].

The record behind these values is PMC5038948 (PLoS ONE, 2016).
